Molecular target: T1, HspB8, Q9UJY1
T1 chain: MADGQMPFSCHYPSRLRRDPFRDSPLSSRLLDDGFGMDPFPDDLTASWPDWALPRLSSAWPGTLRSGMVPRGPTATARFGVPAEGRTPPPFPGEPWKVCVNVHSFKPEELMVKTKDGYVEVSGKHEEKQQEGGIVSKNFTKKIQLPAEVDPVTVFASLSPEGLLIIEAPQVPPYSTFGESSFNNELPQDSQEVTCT
Assay: SPR; BIACORE X; HspB8 amine-coupled to a CM5 chip (7400 RU); running buffer 10 mM HEPES pH 7.4, 150 mM NaCl, 3 mM EDTA, 0.005% P20; 10 uL/min; Langmuir 1:1 fit
Conditions: remark: other sources report otherwise

Ka: 5.2e+06 M⁻¹ | Kd: 0.19 µM | koff: 0.00048 s⁻¹ | kon: 2500 M⁻¹ s⁻¹
B1: HspB8, Q9UJY1 1-196 (natural protein)
chain: MADGQMPFSCHYPSRLRRDPFRDSPLSSRLLDDGFGMDPFPDDLTASWPDWALPRLSSAWPGTLRSGMVPRGPTATARFGVPAEGRTPPPFPGEPWKVCVNVHSFKPEELMVKTKDGYVEVSGKHEEKQQEGGIVSKNFTKKIQLPAEVDPVTVFASLSPEGLLIIEAPQVPPYSTFGESSFNNELPQDSQEVTCT
